According to patent publication EP1471146A2 (Novartis AG, dated 2004):

Biological target: the molecule itself
Test: Western blot of soluble nuclear extracts, seminative electrophoresis (self-association, homotrimer)

B1: recombinant adenovirus type 5 (Ad5) fiber protein expressed from pCLF in cell lines 211A, 211B and 211R (other)
chain: MKRARPSEDTFNPVYPYDTETGPPTVPFLTPPFVSPNGFQESPPGVLSLRLSEPLVTSNGMLALKMGNGLSLDEAGNLTSQNVTTVSPPLKKTKSNINLEISAPLTVTSEALTVAAAAPLMVAGNTLTMQSQAPLTVHDSKLSIATQGPLTVSEGKLALQTSGPLTTTDSSTLTITASPPLTTATGSLGIDLKEPIYTQNGKLGLKYGAPLHVTDDLNTLTVATGPGVTINNTSLQTKVTGALGFDSQGNMQLNVAGGLRIDSQNRRLILDVSYPFDAQNQLNLRLGQGPLFINSAHNLDINYNKGLYLFTASNNSKKLEVNLSTAKGLMFDATAIAINAGDGLEFGSPNAPNTNPLKTKIGHGLEFDSNKAMVPKLGTGLSFDSTGAITVGNKNNDKLTLWTTPAPSPNCRLNAEKDAKLTLVLTKCGSQILATVSVLAVKGSLAPISGTVQSAHLIIRFDENGVLLNNSFLDPEYWNFRNGDLTEGTAYTNAVGFMPNLSAYPKSHGKTAKSNIVSQVYLNGDKTKPVTLTITLNGTQETGDTTPSAYSMSFSWDWSGHNYINEIFATSSYTFSYIAQE
notes: Monomer 62 kD, homotrimer 186 kD; Expressed in 293-derived lines 211A, 211B and 211R; also called recombinant fiber; type 5 fiber protein
- binding result: binds
